Results as given in article PMC4335073.

Target: Ross River virus (RRV), WT T48 strain, UV-inactivated virus coated on plates (Ross River virus, strain T48)

Substance: recombinant human PTX3 N-terminal fragment (domain or fragment)
- RRV entry into HEK 293T cells at 0 and 6 hpi (flow cytometry with anti-alphavirus antibody), RRV pre-incubated with the PTX3 fragment, compared with full-length rhPTX3 (% less efficient than full-length rhPTX3): 30
